# Laboratory results from patent US11110115B2, “Nucleic acid molecule with anti-inflammatory and anti-coagulant and organ-protective properties” (APTAHEM AB, priority 2017, dated 2021).
# B1: SEQ ID NO:2: nucleic acid sequence of SEQ ID NO:1 in which each C and U is fluorinated to increase stability in plasma (nucleic acid)
# chain: GGGAAUUCGAGCUCGGUACCAACAAUACGACUACACCAUCAAAAGUAUUAUCUUGCAUCGAAGGUUGGCACGUAGCAAGCUCUGCAGUCG
# modifications: fluorinated C and U; (6)..(7) uracil is fluorinated; (8)..(8) cytosine is fluorinated; (12)..(12) cytosine is fluorinated; (13)..(13) uracil is fluorinated; (14)..(14) cytosine is fluorinated; (17)..(17) uracil is fluorinated; (19)..(20) cytosine is fluorinated; (23)..(23) cytosine is fluorinated; (26)..(26) uracil is fluorinated; (28)..(28) cytosine is fluorinated; (31)..(31) cytosine is fluorinated; (32)
# Key:
# [1] = Tail bleeding model (bleeding time); type: in vivo, Sprague-Dawley rats; conditions: for group average bleeding time compared to matched vehicle group: SEQ ID NO:2 5, 20, 40 mg/kg i.v. 5 min before, Rivaroxaban 10 mg/kg PO 1 hour before, Warfarin 0.5 mg/kg IV
# Method: A total of 36 Sprague-Dawley male and female rats were utilized and divided into six groups comprising of 6 animals per group. Animal handling was performed according to guidelines of the National Institute of Health and the Association for Assessment and Accreditation of Laboratory Animal Care. Animals were fed ad libitum a commercial rodent diet (Teklad Certified Global 18% Protein Diet cat #: 2018SC). Animals had free access to autoclaved and acidified drinking water (pH between 2.5 and 3.5) obtained from the municipality supply. Animals were housed under standard laboratory conditions, air conditioned and filtered with adequate fresh air supply. Animals were kept in a climate controlled environment.
# SEQ ID NO:2 (Biospring) (100 mg) was dissolved in 5 ml saline to form a stock solution of 20 mg/ml. Vehicle (saline) was provided by Pharmaseed as ready to use for i.v. administration. Rivaroxaban (Bayer, Pharmaseed Ltd) dosing solution was diluted at 10 mg/kg (Group 2M). Warfarin (Ceriliant, Pharmaseed Ltd) was diluted at 0.5 mg/kg (Group 3M). Both Rivaroxaban and Warfarin are clinical standards with anticoagulation activity. To obtain SEQ ID NO:2 dosing solution (2.5 mg/ml) for dose level of 5 mg/kg and dose volume of 2 ml/kg for i.v. injection, 0.375 ml of the above 20 mg/ml stock solution was diluted with 2.625 ml of saline (Group 4M). To obtain SEQ ID NO:2 dosing solution (10 mg/ml) for dose level of 20 mg/kg and dose volume of 2 ml/kg for i.v. injection, 1.5 ml of the above 20 mg/ml stock solution was diluted with 1.5 ml saline (Group 5M). To obtain SEQ ID NO:2 dosing solution (20 mg/ml) for dose level of 40 mg/kg and dose volume of 2 ml/kg for i.v. injection, the above 20 mg/ml stock used (Group 6).
# Rats were intravenously injected five minutes before bleeding time assay. […] Three treated groups received SEQ ID NO:2 at dose levels of 5, 20 and 40 mg/kg saline solution. In each gender, control groups received saline Vehicle. A positive control group received Rivaroxaban (10 mg/kg). Rivaroxaban was administered by oral gavage 1 hour before bleeding time assay. A second positive control groups received Warfarin (0.5 mg/kg).
# Male and female rats were anaesthetized by intraperitoneal injection of ketamine/xylazine. Bleeding time was monitored as described in Stupnisek et al. (2012), until blood flow stopped for a complete 30-sec interval or till the end of 30 min period. In deeply anaesthetized rats (placed in ventral position) the tail was transected with a surgical scalpel 2 mm from the tip (and submerged into a tube with 40 ml of saline at room temperature in vertical position) and the duration and amount of bleeding was measured to evaluate the hemostatic effect of the agents or saline administration. Following the completion of bleeding time evaluation, all rats were immediately sacrificed by CO2 asphyxiation.
# Numerical results were given as means±standard errors. If applicable, statistical analysis was carried out using one-way ANOVA followed by Dunnett's Multiple Comparison post Test. A probability of 5% (p≤0.05) was regarded as significant.
# [2] = Prothrombin time in arteriovenous shunt model; type: in vivo, Sprague-Dawley male rats; conditions: SEQ ID NO:2 33.3 mg/kg i.v. 5 min prior; Rivaroxaban 10 mg/kg p.o. 90 min prior
# Method: FIG. 2: Anti-coagulant activity of SEQ ID NO:2 in Arteriovenous Shunt model. Male rats were intravenously injected with saline (Vehicle) or SEQ ID NO:2 solution, according to their body weight. Rivaroxaban was orally administered to the positive control group. 5 to 90 minutes after administration, rats were anesthetized with pentobarbital-na (50 mg/kg). The left jugular vein and the right carotid artery of anesthetized rats were connected with two catheters. The thrombus weight formed on the thread was calculated by subtracting the average weight of the rough nylon thread (A). Prothrombin times were measured (B) and Activated partial thromboplastin times (APTT) were analysed (C). Each bar represents the mean±SEM (n=8 for vehicle and rivaroxaban groups, n=3 for SEQ ID NO:2 group), *p<0.05, **p<0.01, ***p<0.001 vs Vehicle.
# The animals were assigned to 3 dosing groups according to the body weight (see table 2). Vehicle treated animals were intravenously injected with saline 90 min prior to shunt assay. The positive control treated animals were orally given Rivaroxaban 10 mg/kg at 90 min prior to shunt assay. SEQ ID NO:2 was intravenously injected 5 min prior to shunt assay.
# [3] = Comparable ex vivo APTT study, canine
# [4] = Comparable ex vivo APTT study, non-human primate
# [5] = tested on: IL-10, TNF, IL-6 and IL-1β in serum; assay: LPS-induced cytokine production model, serum cytokines; type: in vivo, C57BL/6 mice; conditions: 2 h after LPS
# Method: Female C57BL/6 mice (Taconic Biosciences) were 8 weeks of age at the start of the study. Animals had free access to autoclaved and acidified drinking water. Animals were housed under standard laboratory conditions, air conditioned and filtered with adequate fresh air supply. Animals were kept in a climate controlled environment.
# SEQ ID NO:2 (Biospring) (100 mg) was dissolved in 5 ml saline to form a stock solution of 20 mg/ml. Vehicle is saline solution.
# Dexamethasone stock was prepared by mixing dexamethasone and beta-cyclodextrin at a 4:96 ratio, solubilized in PBS at 2 mg dexamethasone/mL and stored at −20° C. Dosing solution of dexamethasone was prepared by diluting the stock solution to 1 mg/mL with PBS. Dexamethasone administered at 5 to 10 mg/kg, i.p. is used as a positive control for suppression of the immune response.
# Two hours after LPS injection mice were bled and serum was isolated and added to EDTA in Gel Clot Activator tubes. At least 100 μl has been analysed. The concentration of IL-10, TNF, IL-6 and IL-1β in serum was measured using eBioscience's Luminex kit, according to manufacturer's protocol. A single analysis was performed on every sample.
# [6] = 25 mg/kg i.v., not statistically significant
# [7] = 50 mg/kg i.v., not statistically significant
molecule,measurement,setting,value
B1,anti-coagulation activity relative to clinical care standards (Rivaroxaban and Warfarin),"[1]; all doses (5, 20, 40 mg/kg i.v.), bleeding time",equivalent
same,group average bleeding time compared to matched vehicle group,[1]; female rats,increased significantly
same,dose response effect on bleeding time,"[1]; male rats, 5, 20, 40 mg/kg i.v.",can be observed
same,group average bleeding time compared to matched vehicle group,[1]; male rats,increased significantly
same,Prothrombin times compared to vehicle group,[2],did not show any significant difference
same,positive effect on APTT,[3],confirmed
same,positive effect on APTT,[4],confirmed
same,IL-1β concentration in serum compared to vehicle group,[5]; 5 mg/kg i.v.,similar
same,IL-6 concentration in serum compared to vehicle group,[5]; 5 mg/kg i.v.,similar
same,TNF concentration in serum compared to vehicle group,[5]; 5 mg/kg i.v.,similar
same,"serum concentration of IL-10, difference to vehicle group",[5]; 25 mg/kg i.v. 5 min before LPS,significant
same,IL-1β concentration in serum compared to vehicle group,[5]; [6],lower
same,IL-6 concentration in serum compared to vehicle group,[5]; [6],lower
same,TNF concentration in serum compared to vehicle group,[5]; [6],lower
same,"serum concentration of IL-10, difference to vehicle group",[5]; 50 mg/kg i.v. 5 min before LPS,significant
same,reduction in IL-1β concentration in serum compared to vehicle group,[5]; 50 mg/kg i.v.,statistically significant
same,IL-6 concentration in serum compared to vehicle group,[5]; [7],lower
same,TNF concentration in serum compared to vehicle group,[5]; [7],lower
same,serum concentration of IL-10 compared to vehicle group,"[5]; SEQ ID NO:2 groups (5, 25, 50 mg/kg i.v.) 5 min before LPS",increase
